Laboratory results: the Immune Epitope Database (IEDB)

Legend:
HLA-B*44:02 = assay: IEDB peptide-MHC binding, purified MHC/competitive/radioactivity; filed as Kd, often an IC50 or EC50 that approximates it; ≥ and ≤ were set here for values at or beyond the usual limits of such assays
HLA-B*40:01 = assay: as above; details: source organism: Dengue virus 3 Martinique/1243/1999
HLA-B*44:03 = assay: as above
HLA-A*02:01 = assay: IEDB peptide-MHC binding, purified MHC/competitive/fluorescence; filed as Kd, often an IC50 or EC50 that approximates it; ≥ and ≤ were set here for values at or beyond the usual limits of such assays
HLA-A*03:01 = assay: IEDB peptide-MHC binding, purified MHC/competitive/radioactivity; filed as Kd, often an IC50 or EC50 that approximates it; ≥ and ≤ were set here for values at or beyond the usual limits of such assays; details: source organism: SARS coronavirus Tor2
HLA-A*30:02 = assay: as above
HLA-A*01:01 = assay: as above
HLA-A*23:01 = assay: as above
HLA-A*68:01 = assay: as above; details: source organism: SARS coronavirus Tor2
HLA-A*31:01 = assay: as above; details: source organism: SARS coronavirus Tor2
HLA-A*11:01 = assay: as above; details: source organism: SARS coronavirus Tor2
HLA-A*24:02 = assay: as above
HLA-A*29:02 = assay: as above
HLA-A*26:01 = assay: as above
HLA-A*33:01 = assay: as above; details: source organism: SARS coronavirus Tor2
HLA-B*08:01 = assay: as above
HLA-B*58:01 = assay: IEDB peptide-MHC binding, purified MHC/direct/fluorescence; filed as Kd, often an IC50 or EC50 that approximates it; ≥ and ≤ were set here for values at or beyond the usual limits of such assays; details: source organism: Bacillus anthracis str. A0488
HLA-B*57:01 = assay: as above; details: source organism: Bacillus anthracis str. A0488
[1] = source organism: Dengue virus 3 Martinique/1243/1999
[2] = source organism: SARS coronavirus Tor2
[3] = source organism: Mammarenavirus lassaense
[4] = source organism: Vaccinia virus WR
[5] = source organism: Mammarenavirus tacaribeense
[6] = source organism: Mammarenavirus guanaritoense
[7] = source organism: Mammarenavirus juninense
[8] = source organism: Dengue virus 3 Singapore/8120/1995
[9] = source organism: Vaccinia virus Copenhagen
[10] = source organism: Mammarenavirus machupoense
[11] = source organism: Dengue virus 2 Jamaica/1409/1983
[12] = source organism: Dengue virus 1 Brazil/97-11/1997
[13] = source organism: Mammarenavirus brazilense
[14] = source organism: Dengue virus 4 Philippines/H241/1956

Sequence: AETQNSSFII
- Kd (HLA-B*44:02; [1]): 63.8 nM
- Kd (HLA-B*40:01): 23.1 nM
- Kd (HLA-B*44:03; [1]): 34.7 nM

Sequence: AIVGGLAEL
- Kd (HLA-A*02:01; source organism: Japanese encephalitis virus): 12 nM

Sequence: ALSSDGDTV
- Kd (HLA-A*02:01; source organism: Vaccinia virus Tian Tan): 9.6 nM

Sequence: AMDEFIQRY
- Kd (HLA-A*03:01): 1630 nM
- Kd (HLA-A*30:02; [2]): 1390 nM
- Kd (HLA-A*01:01; [2]): 64.4 nM
- Kd (HLA-A*23:01; [2]): ≥ 20100 nM
- Kd (HLA-A*68:01): ≥ 77700 nM
- Kd (HLA-A*31:01): ≥ 77900 nM
- Kd (HLA-A*11:01): 3230 nM
- Kd (HLA-A*24:02; [2]): 7900 nM
- Kd (HLA-A*29:02; [2]): 896 nM
- Kd (HLA-A*26:01; [2]): ≥ 84100 nM
- Kd (HLA-A*33:01): ≥ 77700 nM

Sequence: CFISVNDRLV
- Kd (HLA-A*30:02; [3]): 573 nM
- Kd (HLA-A*01:01; [3]): 18100 nM
- Kd (HLA-A*23:01; [3]): 358 nM
- Kd (HLA-A*24:02; [3]): 11400 nM
- Kd (HLA-A*29:02; [3]): 5260 nM
- Kd (HLA-A*26:01; [3]): ≥ 69700 nM

Sequence: CPRRYLHRL
- Kd (HLA-B*08:01; [4]): 2.66 nM

Sequence: CWFADKNLI
- Kd (HLA-A*23:01; [5]): 275 nM
- Kd (HLA-A*24:02; [5]): 510 nM
- Kd (HLA-A*29:02; [5]): 3150 nM

Sequence: CYSKSLRDLV
- Kd (HLA-A*30:02; [6]): ≥ 69700 nM
- Kd (HLA-A*01:01; [6]): 12600 nM
- Kd (HLA-A*23:01; [6]): 3070 nM
- Kd (HLA-A*24:02; [6]): 529 nM
- Kd (HLA-A*29:02; [6]): ≥ 43000 nM
- Kd (HLA-A*26:01; [6]): ≥ 69700 nM

Sequence: DWVVERVRWL
- Kd (HLA-A*23:01; [7]): ≥ 51900 nM
- Kd (HLA-A*24:02; [7]): ≥ 48700 nM
- Kd (HLA-A*29:02; [7]): ≥ 71400 nM

Sequence: EEEMFKKRNL
- Kd (HLA-B*44:02; [1]): 90 nM
- Kd (HLA-B*40:01): ≥ 64300 nM
- Kd (HLA-B*44:03; [1]): 815 nM

Sequence: EEHSSTWHY
- Kd (HLA-B*44:02; [8]): 17.6 nM
- Kd (HLA-B*44:03; [8]): 41 nM

Sequence: ENMLRSMPV
- Kd (HLA-B*08:01; [4]): 0.213 nM

Sequence: EYISDAFSL
- Kd (HLA-A*30:02; [2]): ≥ 81100 nM
- Kd (HLA-A*01:01; [2]): ≥ 37600 nM
- Kd (HLA-A*23:01; [2]): ≥ 64600 nM
- Kd (HLA-A*24:02; [2]): ≥ 91800 nM
- Kd (HLA-A*29:02; [2]): ≥ 88200 nM
- Kd (HLA-A*26:01; [2]): ≥ 77900 nM

Sequence: EYKLQQGTF
- Kd (HLA-A*30:02; [2]): ≥ 78900 nM
- Kd (HLA-A*01:01; [2]): ≥ 78100 nM
- Kd (HLA-A*23:01; [2]): ≥ 35100 nM
- Kd (HLA-A*24:02; [2]): 11300 nM
- Kd (HLA-A*29:02; [2]): ≥ 31600 nM
- Kd (HLA-A*26:01; [2]): ≥ 77900 nM

Sequence: EYQKTKLNDW
- Kd (HLA-A*23:01; [1]): 10800 nM
- Kd (HLA-A*24:02; [1]): 10300 nM

Sequence: FGDSEEPVTY
- Kd (HLA-A*30:02; [9]): 13100 nM
- Kd (HLA-A*01:01; [9]): 834 nM
- Kd (HLA-A*23:01; [9]): 1490 nM
- Kd (HLA-A*24:02; [9]): ≥ 70300 nM
- Kd (HLA-A*29:02; [9]): 13000 nM
- Kd (HLA-A*26:01; [9]): ≥ 69700 nM

Sequence: FNAPALQEAY
- Kd (HLA-A*30:02; [2]): 336 nM
- Kd (HLA-A*01:01; [2]): 284 nM
- Kd (HLA-A*23:01; [2]): ≥ 70000 nM
- Kd (HLA-A*24:02; [2]): ≥ 70300 nM
- Kd (HLA-A*29:02; [2]): 26.1 nM
- Kd (HLA-A*26:01; [2]): 526 nM

Sequence: GWHDWQQVPF
- Kd (HLA-A*23:01; [1]): 414 nM
- Kd (HLA-A*24:02; [1]): 118 nM

Sequence: HCALLDCIMY
- Kd (HLA-A*30:02; [10]): 1420 nM
- Kd (HLA-A*01:01; [10]): 232 nM
- Kd (HLA-A*23:01; [10]): ≥ 70000 nM
- Kd (HLA-A*24:02; [10]): ≥ 70300 nM
- Kd (HLA-A*29:02; [10]): 2180 nM
- Kd (HLA-A*26:01; [10]): ≥ 69700 nM

Sequence: HEEPIPMSTY
- Kd (HLA-B*44:02; [11]): 397 nM
- Kd (HLA-B*44:03; [11]): 251 nM

Sequence: HVQRIETWIL
- Kd (HLA-B*08:01; [11]): 1730 nM

Sequence: IARQYEQEM
- Kd (HLA-B*58:01): 15000 nM
- Kd (HLA-B*57:01): 515 nM

Sequence: ILNRRRRTA
- Kd (HLA-B*08:01; [11]): 147 nM

Sequence: IMDLEKRHVL
- Kd (HLA-B*08:01; [11]): 42.1 nM

Sequence: INKRKKTSL
- Kd (HLA-B*08:01; [1]): 18.3 nM

Sequence: IRFPRFTRI
- Kd (HLA-B*08:01; [4]): 1600 nM

Sequence: ITQKGIIFIL
- Kd (HLA-B*08:01; [12]): 577 nM

Sequence: IYRILQRGLL
- Kd (HLA-B*08:01; [12]): 2570 nM

Sequence: KWKSRLNAL
- Kd (HLA-B*08:01; [11]): 65.6 nM

Sequence: LFLAFVVFLL
- Kd (HLA-A*30:02; [2]): 2000 nM
- Kd (HLA-A*01:01; [2]): 537 nM
- Kd (HLA-A*23:01; [2]): 846 nM
- Kd (HLA-A*24:02; [2]): 11700 nM
- Kd (HLA-A*29:02; [2]): 793 nM
- Kd (HLA-A*26:01; [2]): 251 nM

Sequence: LFQLIFFLTL
- Kd (HLA-A*23:01; [13]): 9190 nM
- Kd (HLA-A*24:02; [13]): ≥ 53900 nM
- Kd (HLA-A*29:02; [13]): 673 nM

Sequence: LIAIAVASGL
- Kd (HLA-B*08:01; [14]): 11700 nM

Sequence: LKDGPERVIL
- Kd (HLA-B*08:01; [12]): 2540 nM

Sequence: LLRKHTLKI
- Kd (HLA-B*08:01; [4]): 20.8 nM

Sequence: LNGRKRSTI
- Kd (HLA-B*08:01; source organism: Dengue virus 4 Dominica/814669/1981): 135 nM

Sequence: LNGRKRSTM
- Kd (HLA-B*08:01; [14]): 100 nM
